# Test results taken from publication PMC3621117 (The FEBS journal, 2013).
# B1: wild-type ExsD (natural protein)
# chain: VVGSDARSRGRVPGYASSSLYRESGIISARQLALLQRMLPRLRLEQLFRCEWLQQRLARGLALGREEVRQILLCAAQDDDGWCSELGDRVNLAVPQSMIDWVLLPVYGWWESLLDQAIPGWRLSLVELETQSRQLRVKSEFWSRVAELEPEQAREELARVAKCQARTQEQVAELAGKLETASALAKSAWPNWQRGMATLLASGGLAGFEPIPEVLECLWQPLCRLDDDVGAADAVQAWLHERNLCQAQDHFYWQS
# Target: the molecule itself
# Test: SEC
protein,measurement,value
B1,stoichiometry N,3
